Measured values: patent US20250009852A1, “DEPLETING EGFR AND HER2 OVERCOMES RESISTANCE TO EGFR INHIBITORS IN COLORECTAL CANCER” (Health Research, Inc., priority 2021, published 2025)

Experiments:
[1] = biological target: Epidermal growth factor receptor (EGFR), wild type, P00533
[2] = biological target: HER2, P04626
[3] = biological target: T1, Epidermal growth factor receptor (EGFR), wild type (human, UniProt P00533 25-1210); test: immunofluorescence staining and confocal microscopy of SW48 cells treated with PEPD^G278D (25 nM), anti-His tag and anti-EGFR
T1 construct: whole, on cells; also called WT EGFR; ErbB1
Method: The cells were then washed with ice-cold PBS, fixed with 4% paraformaldehyde for 20 min at room temperature (RT), washed again with ice-cold PBS and blocked with 1% BSA in PBS for 1 h at RT. […] The cells were then examined with a BZ-X700 fluorescence microscope (Keyence) with a S PL FL ELWD ADM 40xC objective. Merged images from Z-stack were organized using the ImageJ software (NIH Image).
SW48 cells were cultured in serum-free medium.

B1: PEPD^G278D (recombinant, enzymatically inactive mutant of human peptidase D, glycine 278 replaced by aspartic acid) (enzyme)
chain: AAATGPSFWLGNETLKVPLALFALNRQRLCERLRKNPAVQAGSIVVLQGGEETQRYCTDTGVLFLQESFFHWAFGVTEPGCYGVIDVDTGKSTLFVPRLPASHATWMGKIHSKEHFKEKYAVDDVQYVDEIASVLTSQKPSVLLTLRGVNTDSGSVCREASFDGISKFEVNNTILHPEIVESRVFKTDMELEVLRYTNKISSEAHREVMKAVKVGMKEYGLESLFEHYCYSRGGMRHSSYTCICGSGENSAVLHYGHAGAPNDRTIQNGDMCLFDMDGEYYSVASDITCSFPRNGKFTADQKAVYEAVLLSSRAVMGAMKPGDWWPDIDRLADRIHLEELAHMGILSGSVDAMVQAHLGAVFMPHGLGHFLGIDVHDVGGYPEGVERIDEPGLRSLRTARHLQPGMVLTVEPGIYFIDHLLDEALADPARASFLNREVLQRFRGFGGVRIEEDVVVIDSGIELLTCVPRTVEEIEACMAGCDKAFTPFSGPK
notes: Made in E. coli and purified by nickel chromatography; The His tag is placed C-terminal by the plasmid's name only; also called PEPD^G278D-His; hPEPD-G278D; not shown: His tag from pBAD/TOPO-PEPD^G278D-His
expression and tyrosine phosphorylation of EGFR (Western blotting, 25 nM, 48 h) [1]: PEPD^G278D obliterated both expression and tyrosine phosphorylation of EGFR and HER2 in SW48, HCT116 and HT29 cells | expression and tyrosine phosphorylation of HER2 (Western blotting, 25 nM, 48 h) [2]: PEPD^G278D obliterated both expression and tyrosine phosphorylation of EGFR and HER2 in SW48, HCT116 and HT29 cells | binding result [3]: binds
